According to patent US20250339569A1 (3B PHARMACEUTICALS, published 2025):
Each block holds one binder with its values, some of them ahead of it. Starred links: 1 amine or outer side, 2 acyl side, 3 side chain; linkers in the order of their positions; H or OH if unused. Positions of bridges follow the written chain, without caps; N, C: chain ends. Non-standard residues stand in square brackets, D forms with d. Primed or numbered codes have the meaning given here. *: point of attachment. Aph(2Ta5Sa)″ = 4-amino-L-phenylalanine, ring amine acylated by 5-sulfamoyl-thiophene-2-carboxylic acid, NS(=O)(=O)c1ccc(C(=O)Nc2ccc(C[C@H](N[*:1])C(=O)[*:2])cc2)s1; Af3(2Ta5Sa) = 3-amino-L-phenylalanine, ring amine acylated by 5-sulfamoyl-thiophene-2-carboxylic acid, NS(=O)(=O)c1ccc(C(=O)Nc2cccc(C[C@H](N[*:1])C(=O)[*:2])c2)s1; Aph(5SaPyr2) = 4-amino-L-phenylalanine, ring amine acylated by 5-sulfamoylpyridine-2-carboxylic acid, NS(=O)(=O)c1ccc(C(=O)Nc2ccc(C[C@H](N[*:1])C(=O)[*:2])cc2)nc1; Af3(3Ta5Sa) = 3-aminophenylalanine, ring amine acylated with 5-sulfamoylthiophene-3-carboxylic acid, NS(=O)(=O)c1cc(C(=O)Nc2cccc(C[C@H](N[*:1])C(=O)[*:2])c2)cs1; Aph(3MSaBz) = 4-aminophenylalanine, ring amine acylated with 3-(sulfamoylmethyl)benzoic acid, NS(=O)(=O)Cc1cccc(C(=O)Nc2ccc(C[C@H](N[*:1])C(=O)[*:2])cc2)c1; Af3(3SaBz) = 3-aminophenylalanine, ring amine acylated with 3-sulfamoylbenzoic acid, NS(=O)(=O)c1cccc(C(=O)Nc2cccc(C[C@H](N[*:1])C(=O)[*:2])c2)c1; Af3(OPyAc) = 3-aminophenylalanine, ring amine acylated with 2-(2-oxopyridin-1-yl)acetic acid, O=C(Cn1ccccc1=O)Nc1cccc(C[C@H](N[*:1])C(=O)[*:2])c1; Aph(3SaBz) = 4-aminophenylalanine, ring amine acylated with 3-sulfamoylbenzoic acid, NS(=O)(=O)c1cccc(C(=O)Nc2ccc(C[C@H](N[*:1])C(=O)[*:2])cc2)c1; Aph(SaPr) = 4-amino-L-phenylalanine, ring amine acylated by 3-sulfamoylpropanoic acid, NS(=O)(=O)CCC(=O)Nc1ccc(C[C@H](N[*:1])C(=O)[*:2])cc1; Af3(SaPr) = 3-aminophenylalanine, ring amine acylated with 3-sulfamoylpropanoic acid, NS(=O)(=O)CCC(=O)Nc1cccc(C[C@H](N[*:1])C(=O)[*:2])c1; Aph(HYDAc) = 4-amino-L-phenylalanine, ring amine acylated by hydantoin-5-acetic acid; Phe(3-NHCO(CH2)3SO2NH2) = N[C@@H](Cc1cccc(NC(=O)CCCS(N)(=O)=O)c1)C(=O)O; DOTA = O=C(O)CN1CCN(CC(=O)O)CCN(CC(=O)*)CCN(CC(=O)O)CC1; Phe(3,4-Cl2) = N[C@@H](Cc1ccc(Cl)c(Cl)c1)C(=O)O; Phe(3-CF3) = N[C@@H](Cc1cccc(C(F)(F)F)c1)C(=O)O; PPAc = 4-carboxymethyl piperazine linker; mXylylene = c1cc(C[*:1])cc(C[*:2])c1; N4AzPhCONH2 = not defined here; N4DazPhCN = not defined here; N6MeQuion = not defined here; NH3PhSa = not defined here; NH4PhSa = not defined here; N4Inda = not defined here; Pip = O=C(O)[C@@H]1CCCCN1; PPAc″ = not defined here; APAc = not defined here; Dap = NC[C@H](N)C(=O)O

Columns and labels:
[1] = molecular target: T1, human carbonic anhydrase IX (CAIX) (human, UniProt Q16790 38-459); test: FACS competition, HT-29 cells, tracer 3BP-4149; pIC50 category B: 7.1-8.0
Procedure: (§1) CAIX-expressing human HT-29 colorectal cancer cells (DSMZ, RRID: CVCL_0320) were cultured in McCoys's 5A modified medium (Biochrom, #F1015) including 10% fetal calf serum (FCS), 2 mM L-glutamine, 100 U/ml penicillin and 100 μg/mL streptomycin. Cells were detached with Accutase (Biolegend, #423201) and washed in FACS buffer (PBS including 1% FCS). Cells were diluted in FACS buffer to a final concentration of 500.000 cells per ml. 200 μL of the cell suspension were transferred to a u-shaped non-binding 96-well plate (Greiner) and cells were washed in ice-cold FACS buffer.
(§2) When biotinylated compounds were used an additional incubation step with 1 μg/mL APC-Streptavidin (Miltenyi; #130-106-791) in 50 μL FACS buffer for 30 minutes on ice was performed.
(§3) Cells were washed twice with ice-cold FACS buffer and analyzed in an Attune NxT flow cytometer (Thermo Fisher). Median fluorescence intensities (MFI) of the APC/Cy5-channel were calculated by Attune NxT software.

[2] = molecular target: T2, Fc-fusion protein of human carbonic anhydrase IX (human, UniProt Q16790 38-414); test: SPR, captured hCAIX-Fc; t1/2 category A: >15.0 min
[3] = molecular target: T2, Fc-fusion protein of human carbonic …; test: SPR, captured hCAIX-Fc; pKD category A: >8.0
[4] = molecular target: T1, human carbonic anhydrase IX (CAIX); test: FACS competition, HT-29 cells, tracer 3BP-4149; pIC50 category A: >8.0
Procedure: as §1, §2, §3

[5] = molecular target: T2, Fc-fusion protein of human carbonic …; test: SPR, captured hCAIX-Fc; t1/2 category B: 5.1-15.0 min
Procedure: (§4) Stock solutions of test compounds were prepared by dissolving each compound in DMSO. DMSO stock solution were diluted 1:1000 in Running Buffer without DMSO. […] SPR binding analyses were performed in Single Cycle Kinetic (SCK) mode at 25° C.
(§5) For each test compound, SPR raw data in the form of resonance units (RU) were plotted as sensorgrams using the Biacore™ T200 control software. The signal from the blank sensorgram was subtracted from that of the test compound sensorgram (blank corrected). The blank corrected sensorgram was corrected for baseline drift by subtracting the sensorgram of a SCK run without the test compound (running buffer only). […] Raw data and fit results were imported as text files in IDBS. The pKD value (negative decadic logarithm of dissociation constant) was calculated in the IDBS excel template.

[6] = molecular target: T2, Fc-fusion protein of human carbonic …; test: SPR, captured hCAIX-Fc; t1/2 category C: 2.1-5.0 min
Procedure: as §4, §5

Binder: {DOTA-APAc}-VYCE[dP]D[Aph(3MSaBz)]LTWSC-NH2 (linker 3-12 via mXylylene; reading uncertain) [3BP-4399]
pIC50 [1]: 7.1 to 8 pic50

Binder: {DOTA-APAc}-VYCE[dP]E(NH3PhSa)WLTWSC-NH2 (linker 3-12 via mXylylene; reading uncertain) [3BP-4441]
t1/2 (half-life of the complex, SPR) [2]: > 15 min
pKD [3]: > 8 pkd
pIC50 [1]: 7.1 to 8 pic50

Binder: {DOTA-APAc}-VYCE[dP]E(NH4PhSa)WLTWSC-NH2 (linker 3-12 via mXylylene; reading uncertain) [3BP-4442]
t1/2 (half-life of the complex, SPR) [2]: > 15 min
pKD [3]: > 8 pkd
pIC50 [1]: 7.1 to 8 pic50

Binder: {DOTA-PPAc″}-YCE[dP]D[Aph(2Ta5Sa)″]LTWSC-NH2 (linker 2-11 via mXylylene; reading uncertain) [3BP-4457]
t1/2 (half-life of the complex, SPR) [5]: 5.1 to 15 min
pKD [3]: > 8 pkd
pIC50 [4]: > 8 pic50

Binder: {DOTA-APAc}-VYCE[dP]D[Af3(3Ta5Sa)]LTWSC-NH2 (linker 3-12 via mXylylene; reading uncertain) [3BP-4412]
t1/2 (half-life of the complex, SPR) [2]: > 15 min
pKD [3]: > 8 pkd
pIC50 [4]: > 8 pic50

Binder: {DOTA-APAc}-VYCE[dP]D[Aph(HYDAc)]LTWSC-NH2 (linker 3-12 via mXylylene; reading uncertain) [3BP-4458]
pIC50 [1]: 7.1 to 8 pic50

Binder: {DOTA-APAc}-VYCE[dP]D[Aph(3SaBz)]LTWSC-NH2 (linker 3-12 via mXylylene; reading uncertain) [3BP-4408]
t1/2 (half-life of the complex, SPR) [2]: > 15 min
pKD [3]: > 8 pkd
pIC50 [4]: > 8 pic50

Binder: {DOTA-APAc}-VYCE[dP]E(N6MeQuion)WLTWSC-NH2 (linker 3-12 via mXylylene; reading uncertain) [3BP-4390]
pIC50 [1]: 7.1 to 8 pic50

Binder: {DOTA-APAc}-VYCE[dP]D[Af3(3SaBz)]LTWSC-NH2 (linker 3-12 via mXylylene; reading uncertain) [3BP-4409]
t1/2 (half-life of the complex, SPR) [2]: > 15 min
pKD [3]: > 8 pkd
pIC50 [4]: > 8 pic50

Binder: {DOTA-APAc}-VYCE[dP]E(N4Inda)WLTWSC-NH2 (linker 3-12 via mXylylene; reading uncertain) [3BP-4387]
t1/2 (half-life of the complex, SPR) [2]: > 15 min
pKD [3]: > 8 pkd
pIC50 [1]: 7.1 to 8 pic50

Binder: {DOTA-APAc}-VDCE[dP]D[Phe(3-CF3)]LTW[Dap]C-NH2 (lactam 2-11; linker 3-12 via mXylylene; reading uncertain) [3BP-4440]
t1/2 (half-life of the complex, SPR) [5]: 5.1 to 15 min
pKD [3]: > 8 pkd
pIC50 [4]: > 8 pic50

Binder: {DOTA-APAc}-VYCE[dP]D[Af3(SaPr)]LTWSC-NH2 (linker 3-12 via mXylylene; reading uncertain) [3BP-4407]
t1/2 (half-life of the complex, SPR) [2]: > 15 min
pKD [3]: > 8 pkd
pIC50 [4]: > 8 pic50

Binder: {DOTA-APAc}-VYCE[dP]D[Af3(OPyAc)]LTWSC-NH2 (linker 3-12 via mXylylene; reading uncertain) [3BP-4370]
pIC50 [1]: 7.1 to 8 pic50

B3: 3BP-4489 (peptide)
peptide: {DOTA}-DCE[dP]D[Aph(SaPr)]LTW[Dap]C-NH2
modifications: lactam 1-10; linker 2-11 via mXylylene
SMILES: CC(C)C[C@@H]1NC(=O)[C@H](Cc2ccc(NC(=O)CCS(N)(=O)=O)cc2)NC(=O)[C@H](CC(=O)O)NC(=O)[C@H]2CCCN2C(=O)[C@H](CCC(=O)O)NC(=O)[C@@H]2CSCc3cccc(c3)CSC[C@@H](C(N)=O)NC(=O)[C@H](CNC(=O)C[C@H](NC(=O)CN3CCN(CC(=O)O)CCN(CC(=O)O)CCN(CC(=O)O)CC3)C(=O)N2)NC(=O)[C@H](Cc2c[nH]c3ccccc23)NC(=O)[C@H]([C@@H](C)O)NC1=O
t1/2 (half-life of the complex, SPR) [2]: > 15 min
pKD [3]: > 8 pkd
pIC50 [4]: > 8 pic50

Binder: {DOTA-APAc}-VDCE[dP]D[Phe(3-NHCO(CH2)3SO2NH2)]LTW[Dap]C-NH2 (lactam 2-11; linker 3-12 via mXylylene; reading uncertain) [3BP-4445]
t1/2 (half-life of the complex, SPR) [2]: > 15 min
pKD [3]: > 8 pkd
pIC50 [4]: > 8 pic50

Further lines, results first:

t1/2 (half-life of the complex, SPR) [2]: > 15 min
pKD [3]: > 8 pkd
pIC50 [4]: > 8 pic50
Binder: {DOTA-APAc}-VYCE[dP]D[Af3(2Ta5Sa)]LTWSC-NH2 (linker 3-12 via mXylylene; reading uncertain) [3BP-4413]

pIC50 [1]: 7.1 to 8 pic50
Binder: {DOTA-APAc}-VYCE[dP]E(N4AzPhCONH2)WLTWSC-NH2 (linker 3-12 via mXylylene; reading uncertain) [3BP-4388]

t1/2 (half-life of the complex, SPR) [5]: 5.1 to 15 min
pKD [3]: > 8 pkd
pIC50 [4]: > 8 pic50
Binder: {DOTA-APAc}-VDCE[dP]D[Phe(3,4-Cl2)]LTW[Dap]C-NH2 (lactam 2-11; linker 3-12 via mXylylene; reading uncertain) [3BP-4439]

t1/2 (half-life of the complex, SPR) [2]: > 15 min
pKD [3]: > 8 pkd
pIC50 [4]: > 8 pic50
B1: 3BP-4488 (peptide)
peptide: {DOTA}-DCE[dP]D[Phe(3-NHCO(CH2)3SO2NH2)]LTW[Dap]C-NH2
modifications: lactam 1-10; linker 2-11 via mXylylene
SMILES: CC(C)C[C@@H]1NC(=O)[C@H](Cc2cccc(NC(=O)CCCS(N)(=O)=O)c2)NC(=O)[C@H](CC(=O)O)NC(=O)[C@H]2CCCN2C(=O)[C@H](CCC(=O)O)NC(=O)[C@@H]2CSCc3cccc(c3)CSC[C@@H](C(N)=O)NC(=O)[C@H](CNC(=O)C[C@H](NC(=O)CN3CCN(CC(=O)O)CCN(CC(=O)O)CCN(CC(=O)O)CC3)C(=O)N2)NC(=O)[C@H](Cc2c[nH]c3ccccc23)NC(=O)[C@H]([C@@H](C)O)NC1=O

t1/2 (half-life of the complex, SPR) [6]: 2.1 to 5 min
pIC50 [1]: 7.1 to 8 pic50
Binder: {DOTA-PPAc″}-QCE[dP]D[Aph(5SaPyr2)]LTWSC-NH2 (linker 2-11 via mXylylene; reading uncertain) [3BP-4480]

pIC50 [1]: 7.1 to 8 pic50
Binder: {DOTA-APAc}-VYCE[dP]E(N4DazPhCN)WLTWSC-NH2 (linker 3-12 via mXylylene; reading uncertain) [3BP-4389]

t1/2 (half-life of the complex, SPR) [2]: > 15 min
pKD [3]: > 8 pkd
pIC50 [1]: 7.1 to 8 pic50
B2: 3BP-4456 (peptide)
peptide: {DOTA}-[Pip]YCE[dP]D[Phe(3-NHCO(CH2)3SO2NH2)]LTWSC-NH2
modifications: linker 3-12 via mXylylene
SMILES: CC(C)C[C@@H]1NC(=O)[C@H](Cc2cccc(NC(=O)CCCS(N)(=O)=O)c2)NC(=O)[C@H](CC(=O)O)NC(=O)[C@H]2CCCN2C(=O)[C@H](CCC(=O)O)NC(=O)[C@@H](NC(=O)[C@H](Cc2ccc(O)cc2)NC(=O)[C@@H]2CCCCN2C(=O)CN2CCN(CC(=O)O)CCN(CC(=O)O)CCN(CC(=O)O)CC2)CSCc2cccc(c2)CSC[C@@H](C(N)=O)NC(=O)[C@H](CO)NC(=O)[C@H](Cc2c[nH]c3ccccc23)NC(=O)[C@H]([C@@H](C)O)NC1=O

t1/2 (half-life of the complex, SPR) [2]: > 15 min
pKD [3]: > 8 pkd
pIC50 [1]: 7.1 to 8 pic50
Binder: {DOTA-PPAc}-DCE[dP]D[Aph(SaPr)]LTW[Dap]C-NH2 (lactam 1-10; linker 2-11 via mXylylene) [3BP-4498]
